Results: patent publication US8440629B2
Residue numbers refer to the chain shown, from its start. Numbers in names are those of the source. Read-outs that look alike come from different tables or passages of the source. Positions of bridges follow the written chain, without caps; N, C: chain ends. No end group written: not given here.

What was measured:
[1] = target: recombinant human LRP1 ligand binding cluster II (human); assay: solid-phase binding assay, immobilised receptor, streptavidin-HRP detection, EDTA-corrected
[2] = target: recombinant human LRP1 ligand binding cluster II (human); assay: solid-phase binding assay, immobilised receptor
[3] = target: recombinant human LRP1 ligand binding cluster II (human); assay: competition ELISA on immobilised LRP1 cluster II; competitor ligand RAP d3 (2 nM)
[4] = target: recombinant human LRP1 ligand binding cluster II (human); assay: competition ELISA, inhibitor pre-incubated with immobilised LRP1 cluster II before washing; competitor ligand RAP d3
MAT CR23 (human) [5] = assay: solid-phase binding assay (FIG. 9); target not given, MatRAP1 was selected on MAT CR23
Sequence of MAT CR23 (human) (Q9Y5Y6 whole entry): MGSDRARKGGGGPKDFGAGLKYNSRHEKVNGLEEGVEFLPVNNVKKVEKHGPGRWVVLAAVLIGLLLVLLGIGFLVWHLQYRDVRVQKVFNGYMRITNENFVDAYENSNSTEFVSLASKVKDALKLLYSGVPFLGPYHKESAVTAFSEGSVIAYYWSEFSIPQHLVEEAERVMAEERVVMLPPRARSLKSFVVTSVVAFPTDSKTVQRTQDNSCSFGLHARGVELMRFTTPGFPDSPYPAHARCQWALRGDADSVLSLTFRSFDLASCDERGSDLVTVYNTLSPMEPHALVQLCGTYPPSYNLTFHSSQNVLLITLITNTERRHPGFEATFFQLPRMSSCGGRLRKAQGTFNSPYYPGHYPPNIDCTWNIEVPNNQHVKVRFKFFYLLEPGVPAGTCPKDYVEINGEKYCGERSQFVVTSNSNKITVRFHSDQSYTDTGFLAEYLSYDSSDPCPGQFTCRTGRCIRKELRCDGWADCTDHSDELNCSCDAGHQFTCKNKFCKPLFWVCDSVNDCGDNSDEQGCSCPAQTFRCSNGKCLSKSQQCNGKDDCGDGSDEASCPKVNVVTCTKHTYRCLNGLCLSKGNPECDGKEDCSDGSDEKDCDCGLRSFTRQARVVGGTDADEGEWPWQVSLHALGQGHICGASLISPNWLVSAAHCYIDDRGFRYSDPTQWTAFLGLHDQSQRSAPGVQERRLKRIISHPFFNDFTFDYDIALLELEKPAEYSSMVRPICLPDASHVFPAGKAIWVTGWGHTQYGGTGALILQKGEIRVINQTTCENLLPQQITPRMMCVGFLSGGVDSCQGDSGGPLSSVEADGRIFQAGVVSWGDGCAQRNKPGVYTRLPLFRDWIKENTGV

8D6 CR12 (human) = assay: solid-phase binding assay (FIG. 10)
LRP1 CR3-5 (human) [6] = assay: phage panning of a RAP library randomised at 256 and 270 on immobilised LRP1 CR3-5
LRP1 CR3-5 (human) [7] = assay: solid-phase binding assay, immobilised CR protein, anti-RAP detection
LRP2 CR3536 (human) = LRP2 CR3536 (human) (UniProt P98164); assay: as above
LRP1 CR3-5 (human) [8] = assay: as above; remark: listed apart in the source
LRP2 CR89 (human) [9] = target: LRP2 CR89 (human) (UniProt P98164); assay: as above
LRP2 CR34-36 (human) = LRP2 CR34-36 (human) (UniProt P98164); assay: as above
MAT CR23 (human) [10] = assay: as above
LRP2 CR89 (human) [11] = target: LRP2 CR89 (human) (UniProt P98164); assay: as above; remark: listed apart in the source
LRP2 CR89 R1088D (human) = LRP2 CR89 R1088D (human) (UniProt P98164); assay: solid-phase binding assay, immobilised mutant CR protein

B1: tag-free RAP d3 peptide linked to maleimide-PEO2-biotin (ligand)
chain: LDRLRRVSHQGYSTEAEFEEPRVIDLWDLAQSANLTDKELEAFREELKHFEAKIEKHNHYQKQLEIAHEKLRHAESVGDGERVSRSREKHALLEGRTKELGYTVKKHLQDLSGRISRARC
modifications: maleimide-PEO2-biotin on the unique C-terminal cysteine
**Q.** B1 was tested. Which Kd [1] did it give?
**A.** 8 nM

B2: mRAP-8c (peptide)
peptide: CGKHFEAKIEKHNHYQKQLEIAHEKLRHAESVGDGERVSRSREKHALLEGRTKELGYTVKKHLQDGC
modifications: disulfide 1-67
**Q.** With B2 as the binder, how does the Kd [2] read?
**A.** 4 to 6 nM

B3: Human RAP (ligand)
chain: YSREKNQPKPSPKRESGEEFRMEKLNQLWEKAQRLHLPPVRLAELHADLKIQERDELAWKKLKLDGLDEDGEKEARLIRNLNVILAKYGLDGKKDARQVTSNSLSGTQEDGLDDPRLEKLWHKAKTSGKFSGEELDKLWREFLHHKEKVHEYNVLLETLSRTEEIHENVISPSDLSDIKGSVLHSRHTELKEKLRSINQGLDRLRRVSHQGYSTEAEFEEPRVIDLWDLAQSANLTDKELEAFREELKHFEAKIEKHNHYQKQLEIAHEKLRHAESVGDGERVSRSREKHALLEGRTKELGYTVKKHLQDLSGRISRARHNEL
**Q.** B3 was tested. Which EC50 [3] did it give?
**A.** 0.5 nM

**Q.** What about the fold better EC50 than monomeric mRAPc peptide [3] of the same binder?
**A.** 64 fold

**Q.** What about the EC50 [4] of the same binder?
**A.** 0.3 nM

B4: MatRAP1 truncated variant, amino acids 243-313 (ligand)
chain: FREELKHFGAKIERHNHYQKQLEIAHEWLRHAESVGDGERVSRSREKHALLEGRTKELGYTVKKHLQDLSG
**Q.** How did the fold increase in binding affinity over MatRAP1 N-42 (MAT CR23 (human) [5]) turn out when B4 was run?
**A.** 4 fold

**Q.** And the fold increase in binding affinity over full-length MatRAP1 d3 (MAT CR23 (human) [5])?
**A.** 12 fold

B5: truncated 320RAP1, amino acids 243-313 (ligand)
chain: B4 chain with G9E, R14S, W28S, L29M, D37Y, V41M, K63T, K64M
**Q.** How did the fold improvement in affinity over the full-length variant (8D6 CR12 (human)) turn out when B5 was run?
**A.** 3.5 fold

B6: MatRAP1 N-42 (ligand)
chain: FREELKHFGAKIERHNHYQKQLEIAHEWLRHAESVGDGERVSRSREKHALLEGRTKELGYTVKKHLQDLSGRISRAR
**Q.** B6 was tested. Which fold increase in affinity over the full-length d3 variant (MAT CR23 (human) [5]) did it give?
**A.** 3 fold

B7: MatRAP1 N-42 without the C-terminal linker and affinity tag (ligand)
chain: B6 chain
**Q.** What does the source list for B7?
**A.** fold increase in binding affinity over MatRAP1 N-42 (MAT CR23 (human) [5]): 2 fold; fold increase in binding affinity over full-length MatRAP1 d3 (MAT CR23 (human) [5]): 6 fold

B8: wild-type RAP displayed on M13 phage (ligand)
chain: YSREKNQPKPSPKRESGEEFRMEKLNQLWEKAQRLHLPPVRLAELHADLKIQERDELAWKKLKLDGLDEDGEKEARLIRNLNVILAKYGLDGKKDARQVTSNSLSGTQEDGLDDPRLEKLWHKAKTSGKFSGEELDKLWREFLHHKEKVHEYNVLLETLSRTEEIHENVISPSDLSDIKGSVLHSRHTELKEKLRSINQGLDRLRRVSHQGYSTEAEFEEPRVIDLWDLAQSANLTDKELEAFREELKHFEAKIEKHNHYQKQLEIAHEKLRHAESVGDGERVSRSREKHALLEGRTKELGYTVKKHLQDLSGRISRARAEAETG
**Q.** B8 was tested. Which fold enrichment after one round of panning (LRP1 CR3-5 (human) [6]) did it give?
**A.** 7 fold

B9: Heptide (peptide)
peptide: CGKHFEAKIEKHNHYQKQLEIAHEKLRHAESVGDAERVSRSREKHALLEGRTKELGYTVKKHLQDACG
modifications: disulfide 1-67
**Q.** With B9 as the binder, how does the Kd [2] read?
**A.** 3.5 nM

B10: mRAP-14c (peptide)
peptide: CEAKIEKHNHYQKQLEIAHEKLRHAESVGDGERVSRSREKHALLEGRTKELGYTVKKHGC
modifications: disulfide 1-60
**Q.** With B10 as the binder, how does the Kd [2] read?
**A.** 21 nM

B11: RAP d3 (ligand)
chain: LDRLRRVSHQGYSTEAEFEEPRVIDLWDLAQSANLTDKELEAFREELKHFEAKIEKHNHYQKQLEIAHEKLRHAESVGDGERVSRSREKHALLEGRTKELGYTVKKHLQDLSGRISRAR
**Q.** Which results are given for B11?
**A.** Kd (LRP1 CR3-5 (human) [7]): 16 nM; binding as percent of that for LRP1 CR3-5 (LRP2 CR3536 (human)): < 5%; Kd (LRP1 CR3-5 (human) [8]): 11 nM; Kd (LRP2 CR89 (human) [9]): > 300 nM; binding as percent of that for LRP1 CR3-5 (LRP2 CR34-36 (human)): < 5%; binding as percent of that for LRP1 CR3-5 (MAT CR23 (human) [10]): < 5%

B12: MegaRAP1 d3 (ligand)
chain: B11 chain with S13T, E17K, H49Y, E51K, K56A, K70E
**Q.** B12 was tested. Which Kd (LRP2 CR89 (human) [11]) did it give?
**A.** 38 nM

**Q.** What about the fold loss of affinity relative to LRP2 CR89 (LRP2 CR89 R1088D (human)) of the same binder?
**A.** 2 fold

B13: RAP d3 E251K, K256A, K270E (ligand)
chain: B11 chain with E51K, K56A, K70E
**Q.** How did the Kd (LRP2 CR89 (human) [9]) turn out when B13 was run?
**A.** 114 nM

B14: MegaRAP1 d3 double revertant K251E, E270K (ligand)
chain: B11 chain with S13T, E17K, H49Y, K56A
**Q.** For B14, which fold difference in affinity against the single-site E270K revertant (LRP2 CR89 (human) [11]) is on record?
**A.** 20 fold

B15: MegaRAP1 d3 E270K (ligand)
chain: B11 chain with S13T, E17K, H49Y, E51K, K56A
**Q.** With B15 as the binder, how does the Kd (LRP1 CR3-5 (human) [7]) read?
**A.** 142 nM

**Q.** And the Kd (LRP2 CR89 (human) [11])?
**A.** 8 nM

B16: MegaRAP1 d3 double revertant A256K, E270K (ligand)
chain: B11 chain with S13T, E17K, H49Y, E51K
**Q.** B16 was tested. Which fold improvement in affinity against the E270K single-site revertant (LRP1 CR3-5 (human) [7]) did it give?
**A.** 30 fold

**Q.** What about the fold loss of affinity against the E270K single-site revertant (LRP2 CR89 (human) [11]) of the same binder?
**A.** 2 fold
